Data on five molecules can be found in article PMC9618773 (iScience, 2022).

The term stoichiometry N denotes a count of units in the complex or per binding partner.

The chains are these.
B1: full-length human steroid receptor coactivator-2 (natural protein)
chain: not shown
B2: GST-fused PR-B fragment LBD (688-933 aa, which contains the AF2) (domain or fragment, human, UniProt P06401 688-933, looked up)
chain: INLLMSIEPDVIYAGHDNTKPDTSSSLLTSLNQLGERQLLSVVKWSKSLPGFRNLHIDDQITLIQYSWMSLMVFGLGWRSYKHVSGQMLYFAPDLILNEQRMKESSFYSLCLTMWQIPQEFVKLQVSQEEFLCMKVLLLLNTIPLEGLRSQTQFEEMRSSYIRELIKAIGLRQKGVVSSSQRFYQLTKLLDNLHDLVKQLHLYCLNTFIQSRALSVEFPEMMSEVIAAQLPKILAGMVKPLLFHKK
B3: full-length human progesterone receptor-B (receptor, UniProt P06401 1-933, looked up)
chain: MTELKAKGPRAPHVAGGPPSPEVGSPLLCRPAAGPFPGSQTSDTLPEVSAIPISLDGLLFPRPCQGQDPSDEKTQDQQSLSDVEGAYSRAEATRGAGGSSSSPPEKDSGLLDSVLDTLLAPSGPGQSQPSPPACEVTSSWCLFGPELPEDPPAAPATQRVLSPLMSRSGCKVGDSSGTAAAHKVLPRGLSPARQLLLPASESPHWSGAPVKPSPQAAAVEVEEEDGSESEESAGPLLKGKPRALGGAAAGGGAAAVPPGAAAGGVALVPKEDSRFSAPRVALVEQDAPMAPGRSPLATTVMDFIHVPILPLNHALLAARTRQLLEDESYDGGAGAASAFAPPRSSPCASSTPVAVGDFPDCAYPPDAEPKDDAYPLYSDFQPPALKIKEEEEGAEASARSPRSYLVAGANPAAFPDFPLGPPPPLPPRATPSRPGEAAVTAAPASASVSSASSSGSTLECILYKAEGAPPQQGPFAPPPCKAPGASGCLLPRDGLPSTSASAAAAGAAPALYPALGLNGLPQLGYQAAVLKEGLPQVYPPYLNYLRPDSEASQSPQYSFESLPQKICLICGDEASGCHYGVLTCGSCKVFFKRAMEGQHNYLCAGRNDCIVDKIRRKNCPACRLRKCCQAGMVLGGRKFKKFNKVRVVRALDAVALPQPVGVPNESQALSQRFTFSPGQDIQLIPPLINLLMSIEPDVIYAGHDNTKPDTSSSLLTSLNQLGERQLLSVVKWSKSLPGFRNLHIDDQITLIQYSWMSLMVFGLGWRSYKHVSGQMLYFAPDLILNEQRMKESSFYSLCLTMWQIPQEFVKLQVSQEEFLCMKVLLLLNTIPLEGLRSQTQFEEMRSSYIRELIKAIGLRQKGVVSSSQRFYQLTKLLDNLHDLVKQLHLYCLNTFIQSRALSVEFPEMMSEVIAAQLPKILAGMVKPLLFHKK
B4: GST-fused PR-B fragment AF3 (1-170 aa) (domain or fragment, human, UniProt P06401 1-170, looked up)
chain: MTELKAKGPRAPHVAGGPPSPEVGSPLLCRPAAGPFPGSQTSDTLPEVSAIPISLDGLLFPRPCQGQDPSDEKTQDQQSLSDVEGAYSRAEATRGAGGSSSSPPEKDSGLLDSVLDTLLAPSGPGQSQPSPPACEVTSSWCLFGPELPEDPPAAPATQRVLSPLMSRSGC
B5: GST-fused PR-B fragment AF1 (401-546 aa) (domain or fragment, human, UniProt P06401 401-546, looked up)
chain: PRSYLVAGANPAAFPDFPLGPPPPLPPRATPSRPGEAAVTAAPASASVSSASSSGSTLECILYKAEGAPPQQGPFAPPPCKAPGASGCLLPRDGLPSTSASAAAAGAAPALYPALGLNGLPQLGYQAAVLKEGLPQVYPPYLNYLR

In data set [1] the target is T1, full-length human p300 (human, UniProt Q09472 1-2414). Put plainly: cryo-EM structure.
T1 sequence (Q09472 whole entry): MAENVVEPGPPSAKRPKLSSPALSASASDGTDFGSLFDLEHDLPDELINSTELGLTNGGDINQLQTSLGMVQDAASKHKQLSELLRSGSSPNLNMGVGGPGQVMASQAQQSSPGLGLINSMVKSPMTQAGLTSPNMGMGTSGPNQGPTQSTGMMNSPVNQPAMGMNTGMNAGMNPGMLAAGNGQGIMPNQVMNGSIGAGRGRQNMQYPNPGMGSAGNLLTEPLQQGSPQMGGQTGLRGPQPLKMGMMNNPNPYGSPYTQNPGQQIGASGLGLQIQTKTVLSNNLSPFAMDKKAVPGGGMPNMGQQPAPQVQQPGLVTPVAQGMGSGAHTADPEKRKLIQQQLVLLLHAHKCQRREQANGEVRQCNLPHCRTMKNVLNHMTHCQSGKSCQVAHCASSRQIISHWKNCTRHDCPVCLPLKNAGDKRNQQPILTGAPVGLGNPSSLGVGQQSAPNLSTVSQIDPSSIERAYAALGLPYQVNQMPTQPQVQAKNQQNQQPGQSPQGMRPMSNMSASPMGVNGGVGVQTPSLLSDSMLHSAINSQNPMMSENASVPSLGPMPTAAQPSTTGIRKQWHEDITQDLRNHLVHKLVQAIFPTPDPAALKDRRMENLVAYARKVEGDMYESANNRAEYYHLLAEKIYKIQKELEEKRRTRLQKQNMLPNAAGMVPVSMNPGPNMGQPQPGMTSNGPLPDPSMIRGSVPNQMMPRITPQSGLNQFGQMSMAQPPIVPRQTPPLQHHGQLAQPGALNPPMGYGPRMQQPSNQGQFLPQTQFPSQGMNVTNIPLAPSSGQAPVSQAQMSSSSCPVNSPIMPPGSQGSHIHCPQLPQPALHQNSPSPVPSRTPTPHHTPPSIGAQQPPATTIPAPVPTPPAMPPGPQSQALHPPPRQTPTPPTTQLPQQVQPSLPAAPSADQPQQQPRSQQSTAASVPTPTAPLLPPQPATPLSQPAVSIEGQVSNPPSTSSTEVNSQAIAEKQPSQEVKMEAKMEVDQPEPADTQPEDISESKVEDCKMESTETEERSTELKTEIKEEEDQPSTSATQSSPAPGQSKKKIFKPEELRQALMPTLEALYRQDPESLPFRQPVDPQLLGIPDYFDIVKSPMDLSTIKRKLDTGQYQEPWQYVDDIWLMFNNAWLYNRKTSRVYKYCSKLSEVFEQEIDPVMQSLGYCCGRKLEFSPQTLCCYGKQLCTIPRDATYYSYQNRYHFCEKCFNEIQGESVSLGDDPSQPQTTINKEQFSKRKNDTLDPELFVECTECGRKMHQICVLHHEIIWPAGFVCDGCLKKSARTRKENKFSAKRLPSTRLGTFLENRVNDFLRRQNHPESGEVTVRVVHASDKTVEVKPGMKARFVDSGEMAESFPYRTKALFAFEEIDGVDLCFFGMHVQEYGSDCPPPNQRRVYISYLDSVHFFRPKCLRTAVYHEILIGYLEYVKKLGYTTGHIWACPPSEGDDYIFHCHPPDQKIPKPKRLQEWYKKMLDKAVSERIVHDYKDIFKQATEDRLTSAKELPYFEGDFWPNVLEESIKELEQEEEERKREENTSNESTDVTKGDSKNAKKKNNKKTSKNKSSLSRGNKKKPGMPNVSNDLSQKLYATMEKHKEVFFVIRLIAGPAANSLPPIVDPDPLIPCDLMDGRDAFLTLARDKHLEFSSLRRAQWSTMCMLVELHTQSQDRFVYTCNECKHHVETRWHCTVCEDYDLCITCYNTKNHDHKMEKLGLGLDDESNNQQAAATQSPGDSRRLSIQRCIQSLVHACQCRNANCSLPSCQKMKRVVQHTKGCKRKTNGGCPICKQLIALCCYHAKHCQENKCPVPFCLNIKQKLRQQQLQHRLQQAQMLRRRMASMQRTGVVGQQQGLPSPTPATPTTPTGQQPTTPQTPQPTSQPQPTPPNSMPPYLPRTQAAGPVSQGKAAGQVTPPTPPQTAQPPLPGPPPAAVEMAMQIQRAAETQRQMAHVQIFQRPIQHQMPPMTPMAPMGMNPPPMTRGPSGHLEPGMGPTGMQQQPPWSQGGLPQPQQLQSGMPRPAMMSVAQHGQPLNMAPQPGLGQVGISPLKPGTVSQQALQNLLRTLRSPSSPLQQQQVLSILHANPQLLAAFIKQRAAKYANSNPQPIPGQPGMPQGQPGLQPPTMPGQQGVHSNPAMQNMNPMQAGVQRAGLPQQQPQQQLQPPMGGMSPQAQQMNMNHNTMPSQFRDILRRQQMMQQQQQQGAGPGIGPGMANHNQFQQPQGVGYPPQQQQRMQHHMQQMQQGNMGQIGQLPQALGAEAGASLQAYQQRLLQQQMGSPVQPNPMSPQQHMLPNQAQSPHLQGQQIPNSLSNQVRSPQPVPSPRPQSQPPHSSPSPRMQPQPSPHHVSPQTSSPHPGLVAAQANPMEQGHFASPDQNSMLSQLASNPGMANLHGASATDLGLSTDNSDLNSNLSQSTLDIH
The target of data set [2] is T1, full-length human p300. Kind of data set: pull-down.
The data set “cryo-EM structure” concerns the molecule itself. Kind of data set: cryo-EM structure.
For data set [3], the target named is B1. Kind of data set: cryo-EM structure.
Data set [4] concerns the target B1. Put plainly: pull-down.

Regarding B1, the binding result in the data set with full-length human p300 [1] is reported as “binds”.
Consider B2, for which, in the data set with full-length human p300 [2], the binding result is “binds”.
For the molecule B3, the “stoichiometry N” value in the data set “cryo-EM structure” was 2. For the same molecule, the binding result (in data set [3]; in the data set with full-length human p300 [1]) was “binds” in each case.
Turning to B4, the binding result with full-length human p300 [2] is on record as “binds”.
For B5, the binding result (in data set [4]; with full-length human p300 [2]) was “binds” each time.
